Measured values as given in patent US20240166725A1 (BEIJING WISDOMAB BIOTECHNOLOGY, published 2024).
Like-named read-outs stand apart in the source and are kept apart here.

Assays:
[1] = target: T1, varicella-zoster virus recombinant protein gH-His/gL (varicella-zoster virus strain Oka, UniProt Q775J3 18-795; Q9J3N1 23-160); experiment: solid-phase phage display screening on gH-His/gL
[2] = target: T1, varicella-zoster virus recombinant …; experiment: competition ELISA on coated gH/gL; competitor: phage S7A10 (same clone), bound phage detected with HRP-anti-M13
[3] = target: T2, gH/gL protein of varicella-zoster virus, native, on VZV (Oka) virions and VZV-infected MRC5 cells (varicella-zoster virus (Oka), UniProt Q775J3 18-841); experiment: cell-based or functional assay
T2 sequence (Q775J3 18-841): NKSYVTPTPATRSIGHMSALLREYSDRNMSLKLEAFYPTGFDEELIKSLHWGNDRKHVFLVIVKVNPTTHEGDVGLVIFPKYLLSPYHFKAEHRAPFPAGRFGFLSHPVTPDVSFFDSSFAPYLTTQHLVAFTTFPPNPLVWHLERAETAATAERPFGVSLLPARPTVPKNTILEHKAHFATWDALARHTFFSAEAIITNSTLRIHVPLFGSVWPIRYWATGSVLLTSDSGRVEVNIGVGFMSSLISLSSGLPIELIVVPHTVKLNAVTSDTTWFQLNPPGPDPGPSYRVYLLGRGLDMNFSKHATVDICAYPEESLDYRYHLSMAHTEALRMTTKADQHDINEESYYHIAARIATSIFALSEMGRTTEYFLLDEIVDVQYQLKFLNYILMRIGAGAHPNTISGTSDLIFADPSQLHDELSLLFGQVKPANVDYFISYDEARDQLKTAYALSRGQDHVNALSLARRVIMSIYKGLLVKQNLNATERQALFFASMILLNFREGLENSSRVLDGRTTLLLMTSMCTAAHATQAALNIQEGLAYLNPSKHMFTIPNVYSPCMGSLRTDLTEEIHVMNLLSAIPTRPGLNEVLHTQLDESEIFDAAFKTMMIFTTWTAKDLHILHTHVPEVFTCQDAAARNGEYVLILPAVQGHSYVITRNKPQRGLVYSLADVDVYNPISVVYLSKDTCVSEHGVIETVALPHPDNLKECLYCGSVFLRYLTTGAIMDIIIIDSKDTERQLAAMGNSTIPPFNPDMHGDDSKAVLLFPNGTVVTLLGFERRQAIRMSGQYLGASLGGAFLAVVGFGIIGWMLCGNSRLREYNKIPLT

[4] = target: T2, gH/gL protein of varicella-zoster …; experiment: cell-based or functional assay; remark: listed apart in the source
[5] = target: T1, varicella-zoster virus recombinant …; experiment: competition ELISA on coated gH/gL; competitor: phage S8E1 (same clone), bound phage detected with HRP-anti-M13
[6] = target: T1, varicella-zoster virus recombinant …; experiment: competition ELISA on coated gH/gL, scFv phage at fixed concentration, anti-M13 detection
[7] = target: T1, varicella-zoster virus recombinant …; experiment: competition ELISA on coated gH/gL; competitor: phage S8B8 (same clone), bound phage detected with HRP-anti-M13
[8] = target: T2, gH/gL protein of varicella-zoster …; experiment: cell-based or functional assay; remark: listed apart in the source
[9] = target: T2, gH/gL protein of varicella-zoster …; experiment: cell-based or functional assay; remark: listed apart in the source
[10] = target: T1, varicella-zoster virus recombinant …; experiment: competition ELISA on coated gH/gL; competitor: phage H4H8-L1B7 (same clone), bound phage detected with HRP-anti-M13

T1 sequence (Q775J3 18-795, tags left off, chain 1 of 2): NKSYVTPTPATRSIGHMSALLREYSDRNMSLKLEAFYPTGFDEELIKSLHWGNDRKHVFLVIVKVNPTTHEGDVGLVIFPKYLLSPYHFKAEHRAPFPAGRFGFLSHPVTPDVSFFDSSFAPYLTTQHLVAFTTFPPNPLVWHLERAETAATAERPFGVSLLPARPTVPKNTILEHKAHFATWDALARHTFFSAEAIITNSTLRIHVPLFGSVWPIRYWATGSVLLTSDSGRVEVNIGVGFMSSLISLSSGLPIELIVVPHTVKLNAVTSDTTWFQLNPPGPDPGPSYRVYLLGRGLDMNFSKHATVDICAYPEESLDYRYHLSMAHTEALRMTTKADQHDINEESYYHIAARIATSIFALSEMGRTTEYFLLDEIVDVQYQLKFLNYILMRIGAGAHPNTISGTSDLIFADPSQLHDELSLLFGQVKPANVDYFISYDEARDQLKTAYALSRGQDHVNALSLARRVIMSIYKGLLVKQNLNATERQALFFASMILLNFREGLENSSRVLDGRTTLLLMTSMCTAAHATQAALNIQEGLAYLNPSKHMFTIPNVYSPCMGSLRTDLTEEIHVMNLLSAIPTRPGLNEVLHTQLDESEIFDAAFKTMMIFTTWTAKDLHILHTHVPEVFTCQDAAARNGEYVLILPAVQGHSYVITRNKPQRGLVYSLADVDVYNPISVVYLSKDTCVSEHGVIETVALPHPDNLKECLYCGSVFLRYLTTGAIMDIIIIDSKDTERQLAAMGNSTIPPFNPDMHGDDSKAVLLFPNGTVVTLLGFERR
T1 sequence (Q9J3N1 23-160 limits assumed, chain 2 of 2): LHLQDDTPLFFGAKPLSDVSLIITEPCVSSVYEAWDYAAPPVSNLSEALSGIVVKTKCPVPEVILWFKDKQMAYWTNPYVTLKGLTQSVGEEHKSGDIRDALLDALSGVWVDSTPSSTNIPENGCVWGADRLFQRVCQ

Binder | PRNT50(µg/mL), plaque reduction, antibody added 24 h after infection of MRC5 cells (cell-to-cell transmission) [3] [µg/mL] | PRNT50 (µg/mL), plaque reduction neutralisation of VZV (Oka) on MRC5 cells [4] [µg/mL] | PRNT50(µg/mL), plaque reduction neutralisation of VZV on MRC5 cells [8] [µg/mL] | PRNT50(µg/mL), plaque reduction, antibody added 24 h after infection of MRC5 cells (cell-to-cell transmission) [9] [µg/mL] | other results
single chain fragment variable S7A10 (phage-displayed) (scFv, also called clone S7A10; phage S7A10) scFv: QVQLKESGPGPVKPSQSLSLTCSVTGYSITSGNYWNWVRQFPGNKLEWMAYISYDGSTYYNPSLKNRISITRDTSKNQFFLKLNSVTTEDTATYYCAEGYYGYWFAYWGQGTLVTVSAGGGGSGGGGSGGGGSENVLTQSPAILSASPGEKVTMTCRASSSVSYMHWYQQKPGSSPKPWIYATSNLASGVPARFSGSGSGTSYSLTISRVEAEDAATYYCQQWSSNPFTFGSGTKLEIK |  |  |  |  | binding result [1]: binds
S7A10-IgG1 (antibody, V domains shown, also called monoclonal antibody S7A10) VH: QVQLKESGPGPVKPSQSLSLTCSVTGYSITSGNYWNWVRQFPGNKLEWMAYISYDGSTYYNPSLKNRISITRDTSKNQFFLKLNSVTTEDTATYYCAEGYYGYWFAYWGQGTLVTVSA VL: ENVLTQSPAILSASPGEKVTMTCRASSSVSYMHWYQQKPGSSPKPWIYATSNLASGVPARFSGSGSGTSYSLTISRVEAEDAATYYCQQWSSNPFTFGSGTKLEIKR | 0.93 | 0.34 |  |  | IC50 (read off the curve) [2]: ~2 nM
S8E1-IgG1 (antibody, V domains shown, also called monoclonal antibody S8E1) VH: EVKLVESGPGLVKPSQSLSLTCSVTGYSITSGYYWNWIRQFPGNKLEWMGYISYDGSNNYNTSLKNRISITRDTSKNQFFLKLNSVTTEDTATYYCAREDVNYPPYALDYWGQGTSVTVSS VL: SIVMTQTPLSLPVSLGDQASISCRSSQSLVHSNGNTYLHWYLQKPGQSPKLLIYKVSNRFSGVPDRFSGSGSGTDFTLKISRVEAEDLGVYFCSQSTHVPWTFGGGTKLEMKR | 2.82 | 0.38 |  |  | IC50 (read off the curve) [5]: ~0.5 nM
single chain fragment variable S8B8 (phage-displayed) (scFv, also called clone S8B8; phage S8B8) scFv: EVKLVESGGGLVQPGGSLKLSCAASGFTFSSYTMSWVRQTPEKRLEWVAFISNGGDNNYYADTVKGRFIISRDNAKNTLYLQMSSLKSEDTAMYYCARHNGNWGFAYWGQGTLVTVSAGGGGSGGGGSGGGGSQNVLTQSPTTMAASPGEKITITCSASSSISSNYLHWYQQKPGFSPKLLIYRTSNLASGVPARFSGSGSGTSYSLTIGTMEAEDVATYYCQQGSSIPLTFGAGTKLEIK |  |  |  |  | binding result [6]: binds
S8B8-IgG1 (antibody, V domains shown, also called monoclonal antibody S8B8) VH: EVKLVESGGGLVQPGGSLKLSCAASGFTFSSYTMSWVRQTPEKRLEWVAFISNGGDNNYYADTVKGRFIISRDNAKNTLYLQMSSLKSEDTAMYYCARHNGNWGFAYWGQGTLVTVSA VL: QNVLTQSPTTMAASPGEKITITCSASSSISSNYLHWYQQKPGFSPKLLIYRTSNLASGVPARFSGSGSGTSYSLTIGTMEAEDVATYYCQQGSSIPLTFGAGTKLEIKR | 3.21 | 0.38 |  |  | IC50 (read off the curve) [7]: ~0.3 nM
H4H8-L13C7-IgG1 (antibody, V domains shown) VH: EVQLVESGGGVVQPGRSLRLSCGASGFTFNTYAMHWVRQAPGKGMEWVAVISYGGGNRYYAASVKGRFTISRDNSKNTLFLQLNTLRPEDTAVYYCARARDNHYFFGMDVWGRGTTVTVSS VL: DIQMTQSPSSVSASVGDRVTITCRASQGISSWLAWYQQKPGKAPKLLIYAASSLQSGVPSRFSGSGSGTDFTLTISSLQPEDFATYYCQQATYFPINFGGGTKVEIKR |  |  | > 0.4 | > 2 | 
H4H8-L1B7-IgG1 (antibody, V domains shown, also called H4H8-LIB7-IgG1; monoclonal antibody H4H8-L1B7) VH: EVQLVESGGGVVQPGRSLRLSCGASGFTFNTYAMHWVRQAPGKGMEWVAVISYGGGNRYYAASVKGRFTISRDNSKNTLFLQLNTLRPEDTAVYYCARARDNHYFFGMDVWGRGTTVTVSS VL: DIQMTQSPSSVSASVGDRVTITCRASQGISSWLAWYQQKPGKAPKLLIYAASSLQSGVPSRFSGSGSGTDFTLTISSLQPEDFATYYCQQANSFPLTFGGGTKVEIKR |  |  |  |  | IC50 (read off the curve) [10]: ~2 nM
H4H8-L13C1-IgG1 (antibody, V domains shown) VH: EVQLVESGGGVVQPGRSLRLSCGASGFTFNTYAMHWVRQAPGKGMEWVAVISYGGGNRYYAASVKGRFTISRDNSKNTLFLQLNTLRPEDTAVYYCARARDNHYFFGMDVWGRGTTVTVSS VL: DIQMTQSPSSVSASVGDRVTITCRASQGISSWLAWYQQKPGKAPKLLIYAASSLQSGVPSRFSGSGSGTDFTLTISSLQPEDFATYYCQEGFYFPINFGGGTKVEIKR |  |  | 0.016 | 0.28 | 
H4H8-L14H8-IgG1 (antibody, V domains shown) VH: EVQLVESGGGVVQPGRSLRLSCGASGFTFNTYAMHWVRQAPGKGMEWVAVISYGGGNRYYAASVKGRFTISRDNSKNTLFLQLNTLRPEDTAVYYCARARDNHYFFGMDVWGRGTTVTVSS VL: DIQMTQSPSSVSASVGDRVTITCRASQGISSWLAWYQQKPGKAPKLLIYAASSLQSGVPSRFSGSGSGTDFTLTISSLQPEDFATYYCQQSSYFPIAFGGGTKVEIKR |  |  | 0.016 | 0.31 | 
single chain fragment variable S8E1 (phage-displayed) (scFv, also called clone S8E1; phage S8E1) scFv: EVKLVESGPGLVKPSQSLSLTCSVTGYSITSGYYWNWIRQFPGNKLEWMGYISYDGSNNYNTSLKNRISITRDTSKNQFFLKLNSVTTEDTATYYCAREDVNYPPYALDYWGQGTSVTVSSGGGGSGGGGSGGGGSSIVMTQTPLSLPVSLGDQASISCRSSQSLVHSNGNTYLHWYLQKPGQSPKLLIYKVSNRFSGVPDRFSGSGSGTDFTLKISRVEAEDLGVYFCSQSTHVPWTFGGGTKLEMK |  |  |  |  | binding result [1]: binds
